Paper PMC11046300 (The Journal of Biological Chemistry, 2024)

T1: GST-NF2 C-terminal half (342-595 aa) (human, UniProt P35240 342-595)
T1 sequence (looked up): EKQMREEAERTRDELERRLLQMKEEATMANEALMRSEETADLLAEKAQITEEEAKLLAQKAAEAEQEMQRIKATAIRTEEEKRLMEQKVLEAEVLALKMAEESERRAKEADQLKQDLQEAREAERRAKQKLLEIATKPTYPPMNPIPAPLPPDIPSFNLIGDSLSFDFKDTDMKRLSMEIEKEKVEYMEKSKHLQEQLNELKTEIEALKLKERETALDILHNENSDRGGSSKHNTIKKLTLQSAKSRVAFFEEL

T2: GST-NF2 FERM domain (1-341 aa) (human, UniProt P35240 1-341)
T2 sequence (looked up): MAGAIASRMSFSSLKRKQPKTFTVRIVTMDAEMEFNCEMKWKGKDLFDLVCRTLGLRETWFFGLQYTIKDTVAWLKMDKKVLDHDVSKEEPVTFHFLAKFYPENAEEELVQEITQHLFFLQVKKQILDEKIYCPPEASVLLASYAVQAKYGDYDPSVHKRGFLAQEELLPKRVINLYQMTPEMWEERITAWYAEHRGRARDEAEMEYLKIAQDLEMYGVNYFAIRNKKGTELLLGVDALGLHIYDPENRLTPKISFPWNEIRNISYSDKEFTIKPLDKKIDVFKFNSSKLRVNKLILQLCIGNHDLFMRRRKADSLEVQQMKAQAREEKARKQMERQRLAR

T3: GST-tagged full-length NF2 (human, UniProt P35240 1-595)
T3 sequence (looked up): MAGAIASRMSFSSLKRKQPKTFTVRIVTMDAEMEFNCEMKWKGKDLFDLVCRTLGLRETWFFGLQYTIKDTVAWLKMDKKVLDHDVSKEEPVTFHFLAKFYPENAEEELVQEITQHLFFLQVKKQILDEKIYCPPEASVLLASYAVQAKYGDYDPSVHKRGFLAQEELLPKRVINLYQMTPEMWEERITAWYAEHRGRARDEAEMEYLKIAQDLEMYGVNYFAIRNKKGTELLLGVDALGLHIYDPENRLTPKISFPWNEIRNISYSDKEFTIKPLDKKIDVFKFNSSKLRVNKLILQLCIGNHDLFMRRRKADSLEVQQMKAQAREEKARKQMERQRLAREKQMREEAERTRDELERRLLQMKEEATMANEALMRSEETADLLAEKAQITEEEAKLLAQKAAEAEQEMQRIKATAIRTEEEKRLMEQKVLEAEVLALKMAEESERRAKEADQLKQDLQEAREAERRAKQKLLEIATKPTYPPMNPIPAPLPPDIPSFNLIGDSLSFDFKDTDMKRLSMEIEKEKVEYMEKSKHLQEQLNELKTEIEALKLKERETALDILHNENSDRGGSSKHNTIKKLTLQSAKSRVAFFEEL

T4: MBP-NF2 A585W (human, UniProt P35240 18-595, A585W)
T4 sequence (looked up): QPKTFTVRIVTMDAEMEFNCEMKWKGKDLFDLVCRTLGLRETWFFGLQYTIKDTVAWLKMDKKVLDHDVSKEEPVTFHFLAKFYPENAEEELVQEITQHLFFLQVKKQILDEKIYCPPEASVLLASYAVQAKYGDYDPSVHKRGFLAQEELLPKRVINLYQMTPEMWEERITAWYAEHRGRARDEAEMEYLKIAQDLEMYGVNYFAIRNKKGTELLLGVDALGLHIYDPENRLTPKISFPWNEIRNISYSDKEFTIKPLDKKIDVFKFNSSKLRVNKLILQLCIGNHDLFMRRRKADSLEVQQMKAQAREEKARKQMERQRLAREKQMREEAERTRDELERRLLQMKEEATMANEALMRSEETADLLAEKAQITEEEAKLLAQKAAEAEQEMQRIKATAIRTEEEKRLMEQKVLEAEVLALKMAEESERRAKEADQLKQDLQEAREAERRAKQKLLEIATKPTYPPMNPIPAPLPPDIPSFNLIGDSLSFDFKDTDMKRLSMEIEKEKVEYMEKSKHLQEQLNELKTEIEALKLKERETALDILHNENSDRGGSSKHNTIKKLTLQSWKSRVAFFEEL

T5: MBP-NF2 (18-595) (human, UniProt P35240 18-595)
T5 sequence (looked up): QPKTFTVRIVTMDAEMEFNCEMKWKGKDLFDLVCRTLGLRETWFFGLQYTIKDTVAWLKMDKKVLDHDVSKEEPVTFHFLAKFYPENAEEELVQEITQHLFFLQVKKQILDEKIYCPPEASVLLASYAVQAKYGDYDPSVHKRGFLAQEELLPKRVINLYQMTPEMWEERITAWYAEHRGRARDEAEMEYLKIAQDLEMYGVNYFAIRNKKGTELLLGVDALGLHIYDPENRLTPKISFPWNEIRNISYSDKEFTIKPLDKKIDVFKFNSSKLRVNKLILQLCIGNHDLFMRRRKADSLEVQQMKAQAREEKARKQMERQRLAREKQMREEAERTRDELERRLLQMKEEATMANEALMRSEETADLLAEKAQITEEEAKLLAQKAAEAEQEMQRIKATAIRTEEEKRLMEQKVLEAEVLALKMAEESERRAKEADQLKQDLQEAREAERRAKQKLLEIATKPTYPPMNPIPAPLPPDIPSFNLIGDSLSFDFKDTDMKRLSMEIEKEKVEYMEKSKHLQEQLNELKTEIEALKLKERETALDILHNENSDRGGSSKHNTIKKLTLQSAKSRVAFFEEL

B1: His-TEAD4-YBD (domain or fragment, human, UniProt Q15561 217-434, looked up)
chain: RSVASSKLWMLEFSAFLEQQQDPDTYNKHLFVHIGQSSPSYSDPYLEAVDIRQIYDKFPEKKGGLKDLFERGPSNAFFLVKFWADLNTNIEDEGSSFYGVSSQYESPENMIITCSTKVCSFGKQVVEKVETEYARYENGHYSYRIHRSPLCEYMINFIHKLKHLPEKYMMNSVLENFTILQVVTNRDTQETLLCIAYVFEVSASEHGAQHHIYRLVKE

Columns and labels:
Assay in all cases: pull-down
His-TEAD4-YBD = target: B1
[1] = target: T1, GST-NF2 C-terminal half (342-595 aa)
[2] = target: T2, GST-NF2 FERM domain (1-341 aa)
[3] = target: T3, GST-tagged full-length NF2
MBP-NF2 A585W = target: T4, MBP-NF2 A585W
MBP-NF2 (18-595) = target: T5, MBP-NF2 (18-595)

| binding result (His-TEAD4-YBD) | binding result [1] | binding result [2] | binding result [3] | binding result (MBP-NF2 A585W) | binding result (MBP-NF2 (18-595)) | Binder |
| --- | --- | --- | --- | --- | --- | --- |
| binds |  |  |  |  |  | GST-NF2-507-595 (domain or fragment, human, UniProt P35240 507-595, looked up) FDFKDTDMKRLSMEIEKEKVEYMEKSKHLQEQLNELKTEIEALKLKERETALDILHNENSDRGGSSKHNTIKKLTLQSAKSRVAFFEEL |
|  | binds | binds | binds |  |  | SUMO-His-tagged TEAD4 YBD domain (217-434) (domain or fragment, human, UniProt Q15561 217-434, looked up) RSVASSKLWMLEFSAFLEQQQDPDTYNKHLFVHIGQSSPSYSDPYLEAVDIRQIYDKFPEKKGGLKDLFERGPSNAFFLVKFWADLNTNIEDEGSSFYGVSSQYESPENMIITCSTKVCSFGKQVVEKVETEYARYENGHYSYRIHRSPLCEYMINFIHKLKHLPEKYMMNSVLENFTILQVVTNRDTQETLLCIAYVFEVSASEHGAQHHIYRLVKE |
|  |  | binds |  | binds | binds | B1 |
